In article PMC11452399 (Nature Communications, 2024):

Target: human ferritin heavy chain (FTH1) (human, UniProt P02794)
Assay: ELISA

human ferritin heavy chain (FTH1), sequence (P02794 whole entry): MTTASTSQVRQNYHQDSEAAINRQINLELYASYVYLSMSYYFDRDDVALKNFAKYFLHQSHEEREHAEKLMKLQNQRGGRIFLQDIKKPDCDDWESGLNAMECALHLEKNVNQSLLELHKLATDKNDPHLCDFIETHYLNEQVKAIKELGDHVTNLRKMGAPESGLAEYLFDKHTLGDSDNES

DSFQVIKNSPLSEWLI [GST-Peptide WT (NCOA4 484-499)]
EC50: 288 nM
